# Numbering of substitutions follows the chain as printed.
# B1: R2C3 (R5C1) chimeric bovine-human IgG1 (ultralong CDR3) (antibody)
# VH: QVQLRESGPSLVKPSQTLSLTCTASGFSLSDKPVGWVRQAPGKPLEWLGSIDTAENTGYNPGLKSRLSITKDNSKSQVSLSLSSVTTEDSATYYCATVHQKTRKEKSCPDGYLYSSNTGRGYDCGVWTCRRVGGEFCSATGDWTSPSEEDFYEFYVDTWGQGAPVTVSS
# VL: QAVLNQPSSVSGSLGQRVSITCSGSSSNVGNGYVSWYQLIPGSAPRTLIYGDTSRASGVPDRFSGSRSGNTATLTISSLQAEDEADYFCASAEDSSSNAVFGSGTTLTVL
# notes: also called SA-R2C3
# B2: R2D6 chimeric bovine-human IgG1 (antibody, V domains shown)
# VH: QVQLRESGPSLVKPSQTLSLTCTTSGFSLSSYAVGWVRQAPGKALEWVGDIDYVGNTDYNPALKSRLSITKDNSKSQVSLVVSSVTAEDAATYYCAKYSGAYAYAACNYYGWRCAWESYIDAWGQGLLVTVSS
# VL: B1 VL
# B3: R2B1 chimeric bovine-human IgG1 (antibody, V domains shown)
# VH: QVQLRESGPSLVKPSQTLSLTCTVSGFSLSDNNVGWVRQAPGKALEWLGVMHNDGNKGYNPALKSRLSITKDSSKSQVSLSLSSVTSEDTATYYCTRDNARCDSWTYDSCDTWYRNSWHVDAWGQGLLVTVSS
# VL: B1 VL
# B4: RBD F4 chimeric bovine-human IgG1 (antibody, V domains shown)
# VH: QVQLRESGPSLVKPSQTLSLTCTVSGFSLSSNGVVWVRQAPGKALEWLGDICSTGGTSFNPALKSRLSIAKDNSKSQVSLSVRSVTPEDTATYYCARSRGYDCYANVDALDYVDAWGQGLLVTVSS
# VL: B1 VL
# B5: R2F12 chimeric bovine-human IgG1 (ultralong CDR3) (antibody)
# VH: QVQLRESGPSLVKPSQTLSLTCTVSGFSLSDKAVGWVRRAPGKALEWLGSIDTGGMTGYNPGLKSRLSITKDNSKSQVSLSVNSVTTEDSATYYCATVDQKTKNACPDDFDYRCSCIGGCGCARKGCVGPLCCRSDLGGYLTDSPAYIYEWYIDLWGQGLLVTVSS
# VL: B1 VL
# notes: also called RR2F12
# B6: RBD A2 chimeric bovine-human IgG1 (antibody, V domains shown)
# VH: B4 VH with S15L, T17I
# VL: B1 VL
# B7: SR3A3 chimeric bovine-human IgG1 (ultralong CDR3) (antibody)
# VH: QVQLRESGPSLVKPSQTLSLTCTISGFSLSSYAVLWVRQAPGKPLEWLGSIDTAENTGYNPGLKSRLSITKDNSKSQVSLSVSSVTTEDSATYYCATVHQKTRKEKNCPDGYIYSSNITSGFDCGVWICRRVGSAFCSRTGDYTSPTELDIYEFYVEGWGQGVPVTVSS
# VL: B1 VL
# B8: RBD C6 chimeric bovine-human IgG1 (antibody, V domains shown)
# VH: B4 VH with K43R, A44P, T54N, K75E, S81T, N106Y, D108Y, Y112T
# VL: B1 VL
# B9: R2G3 chimeric bovine-human IgG1 (ultralong CDR3) (antibody)
# VH: QVQLRESGPSLVKPSQTLSLTCAASGFSLSDKAVGWVRRAPGKALEWLGSIDTGGSTGYNPGLKSRLSITKDNSKSQVSLSISSVTSEDSATYYCATVHQKTAEGDKTCPDGYEHTCGCIGGCGCKRSACIGALCCQASLGGWLSDGETYTYEFHVDTWGQGLVVTVSS
# VL: B1 VL
# notes: also called 2G3 IgG; R2-G3 IgG
# Target: T1, SARS CoV-2 spike trimer protein from the parental Wuhan-Hu-1 isolate (recombinant stabilized extracellular … (SARS-CoV-2 (Wuhan-Hu-1)))
# T1 construct: also called Spike protein
# Experiment: ELISA, spike coated, chimeric IgG1
row,Binder,EC50 [nM]
1,B1,0.39
2,B2,0.41
3,B3,0.37
4,B4,0.03
5,B5,0.05
6,B6,0.024
7,B7,0.037
8,B8,0.03

# Target: T1, SARS CoV-2 spike trimer protein from …
# Experiment: ELISA on coated spike protein, anti-human Fc-HRP, OD450
row,Binder,EC50 (read off the curve) [nM]
1,B9,~0.01
2,B5,~0.02

# Target: T1, SARS CoV-2 spike trimer protein from …
# Experiment: ELISA on coated recombinant stabilized spike protein, panel WT, OD 450
row,Binder,EC50 (read off the curve) [nM]
1,B9,~0.4
2,B1,~0.3
3,B5,~0.3

# Source: patent US20260184766A1 (APPLIED BIOMEDICAL SCIENCE INSTITUTE, published 2026)
